Here are results for six molecules from article PMC7705670, “Structural and functional characterization of M. tuberculosis sedoheptulose- 7-phosphate isomerase, a critical enzyme involved in lipopolysaccharide biosynthetic pathway” (Scientific Reports, 2020).

Changes are numbered by the printed parent chain. Names and notes keep the numbering of the source.

What all share (test): SEC
In general terms: SEC sorts molecules by how far they enter the pores of the column.

Data set [1] deals with MtbGmhA Q173A mutant (M. tuberculosis) (UniProt P9WGG1).
Data set [2] has as its target MtbGmhA S123A mutant (M. tuberculosis) (UniProt P9WGG1).
Data set [3] has as its target MtbGmhA S126A mutant (M. tuberculosis) (UniProt P9WGG1).
For data set [4], the target named is MtbGmhA T122A mutant (M. tuberculosis) (UniProt P9WGG1).
The data set “SEC” concerns the molecule itself.

Consider “MtbGmhA Q173A mutant (from UniProt P9WGG1 1-196) (enzyme)”, for which the stoichiometry N (commonly the number of molecules, sites or subunits per partner or assembly) in data set [1] stood at 4. Turning to “MtbGmhA S123A mutant (from UniProt P9WGG1 1-196) (enzyme)”, the stoichiometry N in data set [2] amounted to 4. In the case of “MtbGmhA S126A mutant (from UniProt P9WGG1 1-196) (enzyme)”, the stoichiometry N in data set [3] was determined as 4.

“MtbGmhA T122A mutant (from UniProt P9WGG1 1-196) (enzyme)” had a stoichiometry N in data set [4] of 4.

B1: MtbGmhA N53G mutant (enzyme)
chain: MCTARTAEEIFVETIAVKTRILNDRVLLEAARAIGDRLIAGYRAGARVFMCGGGGSAADAQHFAAELTGHLIFDRPPLGAEALHANSSHLTAVANDYDYDTVFARALEGSARPGDTLFAISTSGNSMSVLRAAKTARELGVTVVAMTGESGGQLAEFADFLINVPSRDTGRIQESHIVFIHAISEHVEHALFAPRQ
notes: not shown: His6, N-terminal, kept
For the molecule B1, the “stoichiometry N” value in “SEC” was 4.

B2: MtbGmhA S121G mutant (enzyme)
chain: B1 chain with G53N, S121G
notes: as for B1
On to B2, for which, in the data set “SEC”, the “stoichiometry N” value was found to be 4.
